Non-standard residues stand in square brackets, D forms with d. No end group written: not given here. *: point of attachment. Biotin = O=C1N[C@H]2[C@H](CS[C@H]2CCCCC(=O)*)N1; Lys(Me2) = CN(C)CCCC[C@H](N)C(=O)O
Biological target: MBP fused to the Tudor domain (residues 1484–1603) of 53BP1 (human, UniProt Q12888 1484-1603)
Assay: pull-down

Chain of MBP fused to the Tudor domain (residues 1484–1603) of 53BP1 (Q12888 1484-1603): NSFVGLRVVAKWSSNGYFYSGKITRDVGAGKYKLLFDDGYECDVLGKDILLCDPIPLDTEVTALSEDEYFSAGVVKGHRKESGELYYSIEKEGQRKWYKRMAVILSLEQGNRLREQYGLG

In the case of {Biotin-Mini‑PEG}-YGKGGAKRHR[Lys(Me2)]VLRD [biotin-labeled peptide derived from histone H4K20me2], the IC50 is reported as 100 to 300 µM.

From publication PMC5762392 (Nature biotechnology, 2017)
